Experimental data as given in a protein production outcome set (Wang et al. 2014).

Test: label from the status in PepcDB records

Sequence	protein production
MNAKSRPSRKLLKGAVIGPAQLMADQPFSVIRAVSRRSDRDHVGVLAAGVAFFSLLASFPALVTLITLYGLFTGPQEAVRQIAEAGVYLPRGVHDLLAEHLPRLAQASPGSLGLGAITSLLFSIWSASRGMGAMVDGVDIAYQVGDGRGFLRKSILVVGLTLAGLVVSAIALPLIVGLPALFDRLPLPLEIRWALALARWPLLFALVLGALAVLFRYAPDRENPRWRWVTPGALAAATLWILASGGLSLYVGLVSSYDQTYGTLAGVVVAMMWLYLASYAVLLGAEINAELEDRGMERIKKDQAAAKAAVARA	failed
MGIKQYSQEELKEMALVEIAHELFEEHKKPVPFQELLNEIASLLGVKKEELGDRIAQFYTDLNIDGRFLALSDQTWGLRSWYPYDQLDEETQPTVKAKKKKAKKAVEEDLDLDEFEEIDEDDLDLDEVEEELDLEADDFDEEDLDEDDDDLEIEEDIIDEDDEDYDDEEEEI	failed
ADELVMSNLHSKENYDKYSEPRGYPKGERSLNFEELKDWGPKNVIKMSTPAVNKMPHSFANLPLRFGRNVQEERSAGATANLPLRSGRNMEVSLVRRVPNLPQRFGRTTTAKSVCRMLSDLCQGSMHSPCANDLFYSMTCQHQEIQNPDQKQSRRLLFKKIDDAELKQEK	failed
MGARAPFAVAGRGEIGRGQQGQAQPGGMMRALALALLLWPACAAAEFFTLKGHGGPVMGIAVGPEGQIATASFDNSVGLWTGRAPHWFEGHEAAVNTVAFQGGVLYSAGDDFTLRRWPEGTILGRHKGKITGLALSETLAATASWDGTIGLWPLDSRAPRSLDAASGVNAVAFSPDGTLLYSAGMDGVLRLWDVASGSELRQITRHGFGINEIVLNDADGWLAYGAVDGVTRILDLATGAERDFTLDRRPVLALALSPDRSQLAVGDGEGYIMVIDTASWRIARDFRATLRGPVWALAFSPDGANIHAGGIDDTMYSWPVASLSEHGKMASGERSFLKDPDQMDNGERQFARKCSICHALTPEGGRRAGPTLYRVFGRRAGTLPGYLYSDTLAGSDIVWTEESINSLFDLGPDHYIPGSKMPMQRITGAQDRADLIAYLRRATLAKESP	failed
MTSTTTAPLVGLVMGSDSDWPVMEAAADALAEFGIPFEADVVSAHRMPTEMIRYGQTAHERGLRVIIAGAGGAAHLPGMLASVTPLPVIGVPVPLKTLDGMDSLLSIVQMPAGVPVATVSIAGARNAGLLAVRILASGTDDLASKLRADLLTFAQELNDVATKKGENLRHKVEEVFSPANASARSSR	failed
MAKAVRIGAEGYKLKLDGAVQEIDGRSVVLVDVDSITPLMFGGSMKEKAKLLDAKFLRKYYEENKDFFFLSTREEKKMFVTLQLAREYAELVDDQFLRGFFEKALESAQKAF	not failed
MSKVCQVTGKRPVVGNNVSHANNKTKRRFEPNLHHHRFWLESEKRFVRLRLTTKGMRIIDKLGIEKVVADLRAQGQKI	failed
MEASRNRSLVGNNRSPEMNENDGEDVAASAAVEDVEVWDTLSNGFKRAQLYLDQNRDLIQRVNENHMSRIPDNVSRNVGLINEINGNISQVMEIYSDLSLNFAKKFDQRRRTTKDGDTTTTTTGS	failed
MRWGSWLALAGLNAFLSIASGAFAAHALSALGDAHGVGLMEKSARYQMYGAFALVVCAWLAERGVGGRLVAVAGWLHLAGVVLFCGALSAIALLGWPAGPVAPLGGSAMLLGWGVLAWIGLRARRGA	failed
MGFLQRISLMITSLIILHTIPSTTSISITPDAPTMILIDSICVNTKNMYYCEQSIISKLGNPHAEIKTIADIAAFNAVYLITSAGNYIRDKFIPIAENPLVKNQLVLCLATYRAVQKLLEGAYLADRRGDYSDMRHYQSSVLGMLDNCKTDFDYMVRTNWGVRLMINISLLATRQLPAQ	failed
MTERSFEGSAYSDYRSSHQKPGYGTDYAETFRSGYYAALWSRIERPLVEGILSPLGGPGRSCLDFACGTGRVAAVAGPLFGEVVGVDVSRSMLACARVPGNVKLVEADLTVAPLSRRFDVVTAFRFFLNAEDTLKRDALSAIHEHLNDGGLLVSNVHMNATSPMGLACRFLNRFQGRVVRSTLSIHAYRQMLVSNGFVVESVIGYGFLPRPGWLLPRLCETLVGPVETICRRAGVPGRFAQNFLVVARKQ	failed
MPPFMSGLRAVSSLLSCRNAISRKLVSRSGIPRGSFVSDQIRRFGSLSGVERCSSNWLMSNDDARVSFRRLPGSVSLLQRRHFLGCGDGEEGGGELSKIYEERRVLGYTPEQMFNVVAAVDLYHGFVPWCQRSEVLKEYPDGSFDAELEIGFKFLVESYISHVESERPKWIKTTARDTGLFDHLINLWQFKPGPIPGTCDLHFHVDFKFNSPLYRQVASMFFKEVASRLVGAFSDRCRLVYGPGVRVDENAYEQRA	failed
MSDPAIAVLPYGMKLGPALSGLPLDQVNWPLGCPERLVGKTLGDLGAGDHLLVYPRTGTHFQLSRGTRARISLIMAEPAVIHAKHYALLRVTWRRFHRVLTFNQAAVDRLPNARLLLFGSTWVPEWQSLTPEKVAQCSLIASAKRDSTGHKLRHAVVDWVRASDQDVAVLGRGYQPFDSKADGLAPYRYSVVIENVQERNYFSEKLLDAVFCETVPIYWGCPNIADFVDTTAMILCTREEDIRRAVAEMSAEDYAARLPALRALKQQLAPYAAHEARAARMILDELLEHHHHHH	not failed
MGKRMLSMFHPFEIALCGLSGSGKTTLLEKLIRRFSTDGFEVAAFKHGCHRFDIDREGKDSDRFRRAGAVPVLIVDREKEALISSGTGRLDIAGLTLNADLLFIEGFKELPVPKVLLIDERREILPSLESGAIPEVLALAHDGDAEDMERFGLPLFHRDDVARISDFSAEFFRRAAQSVPLNGLVLAGGRSLRMGRDKAQLRYHEASQLDRTAALLGGVCNEVFISCRSDQLDQYSDARLPGIADSYLDLGPLGGLLSAQRHAPGAAWLVAACDLPFIDEAVIAALRAGRHPFRFGTAFAGSDGRPEPLLAIYEPKSRRRLLERHASGNDSLRAFLMNSRVQFIEPNDASKLRNVNDPAAMDDALRAISKGGQLEHHHHHH	failed
MDYKVSVLIVCYNQEKYIKKALESVLSQKVNFNYEIVVCDDCSSDRTFNILQEYKSKLGSKLNLIRNYKNLGITLNYKNGFKNCKGEYIAVLEGDDYWIQKSKLKRQVSFLESNRDCSLVFNKIVLDYGDEKINNLIYPFNDIRKKFSARELVRSNFIQNFSCCMYRKSSIRKLRESIYDMVVYDWMFNMAVAQFGLIGYIPNYMTSHRILKSGLWSGKSKMENLQMISKCIDQYDSFFKYKYRKEFSQNKQEVLQALRRLVMVNENGLEHHHHHH	not failed
MSSFVLDKEAFVRRVKRLYTEWRAPSIGHDDALRNLDCIMSIVGVEEDVMYSKSMALQLWLLGYELTDTISVFCSDAVYFLTSKKKIEFLKQTQNITEEGFPEINLLVRDRTDKDQGNFEKLIKALQNSKKGKRLGVFAKDAYPGEFSEAWKKSLTASKFEHVDISTIIAYLMCPKDESEINNIRKASLVSMDIFNKYLKDEIMDIIDSDRKVKHNKLSDGCEAAIGEKKYTSGLDPRLLDMAYPPIIQSGGAYSLKFSAVADKNPLHFGVIVCSLGARYKSYCSNISRTFLVNPTEAMQENYTFLVSV	failed
MKVQATFATLIALAAYFPAANAWKDCIIQRYKDGDVNNIYTANRNEEITIEEYKVFVNEACHPYPVILPDRSVLSGDFTSAYADDDESC	not failed
MGHHHHHHSHMTENDLASLFNNSALFKALGFNIIEINDDAIVMEINDDNPCHQGGFGVLTSLGINGAVISAALESAIGLCGFNALGREPAGVVELSVKILRVIRKKPCRVEARVDNKNNNVAFISATLISARGGICATGTGIVLKSKTTEATQ	not failed
TGEREYIKKLEPMLKELGWWGKAKDENGNEVQLGSPRRLRTILRTNKITAYHAARYAQQMENVDEQPYWRYVAVNDSRTRASHLALHGKIYRADDPIWQTMYPPNDWGCRCRVEALS	failed
MKKIGIIGAGGIARAHATALSTIKNAELVGVYDINQQNAESFVKTFGGKSFENVDELIDASEGLIVASPNFCHKEHALQALGKHKHVLCEKPMAISLEEASIMKDTAERLSVRASMGFNYRYLSYVNILKSLIINNELGNILSIKVHFKKNSALRRKKFTWRDDANSKKTSGSLGDLGIHLIDMVWYLFESDFITESVRAKMNTNVKTKEDKQVLVDDYAEIYGQLRNKVFVNIITSKCSVPEDCGFSIEVVGHKKEFKYHTGNPHVYKLIDGLNVVDCPVPQSLLNDPPNEFYGWADSFRSELINWIASTQNDWVEIPSFSDGFRSQEVLEMFFEKDS	failed
MFVFGAYWFDCGERAVLPANSRGALRPQCTRLRFWRGRYWHRGAVSALRRVRPLSASTPSPRVLDGSQSLADTPDNVQQLLQHMSQELDSVVQSMVHLEEYALEQVEKLKGAMEADLRKLALYEEEQAFAQKLTEQLQKKEGAVFEAMRHFLFHVVGLQEQTVAITNELQVLHEFVSENHERVELVLESLRERGLFGSRQDVFEGEVKKKLDRFDPEI	failed
MSVSAELSQTIINNQVTSVLILDESLMIRYANPAAEQLFSQSAKRLMHQSLNHLVQHSSLDLQLLTQPLQSGQSITDSDVTLVIDSKPLMLEVTVSPISWHKELLLLAEMRTIG	failed
MTNNPLGRIIPQQPPIEPQSDAHVLKSRLEWGEPAFTILDVRDRSTYNDGHIMGAMAMPIEDLVDRASSSLEKSRDIYVYGAGDEQTSQAVNLLRSAGFEHVSELKGGLAAWKAIGGPTEGIIESRTPAGADDYNVVSRMQNHLENQKKEV	failed
METAKDGEQSPSEASPPTQAGPETISEPVPLEEEGQPLYHEETIDLGGDDFASEETEPTSEGSHNFGDKLNEHMMESVLISDSPNNSEGDVGDLGCLQDVGEPPRGATDHRLPDSTDKEVVDTLSNGSETDGDDTPRDISDMTPDSRASLKEDSTQEDVPAMPALENAGTEEVGPKDSLVPREEQTSEVSSSQSSSKDEPLPVCTIFSQATSTSSQPHLFLQDGFESQMVKSPSFSSTSETSAKTPPPMVQPSPSLSTFFGDTMSSNSLASDFFDSFTTSTFISVSNPNAGSPVPEKLASLTAPVGEKSPDSTSPSYSTRMDRSESGVSRAALDVPESPKPFSQIQAVFAGSDDPFATALSMSEMDRRNDAWLPSQATREVLMSVATQQYGTVFIDKENLTMPGLKFDNIQGDAVKDLMLRFLGEKAAAKRQVLNASSVEQSFVGLKQLISCRNWRAAVDLCGRLLTAHGQGYGKSGLPTNHTTDSLQLWFVRLALLVKLGLFQNAEMEFEPFGNLDQPDLYYEYYPHVYPGRRGSMVPFSMRILHAELQQYLGNPQESLDRLHRVKTVCSKILANLEQGLAEDGGLSSVTQESRQASVQLWRSRLGRVLYSMANCLLLMKDYVLAVNAYLTVIKYYPEQEPQLLSGIGRILLQIGDIKTAEKYFQDVEKVTQKLDGLQGKIMVLMNRAFLYLGQNNFAEAHKFFTEILRMDPTNAVANNNAAVCLLYLGKLKDSLRQLEAMVQQDPRHYLHESVLFNLTTMYELESSRSMQKKQSLLEAVASKEGDSFNTQCLKLA	failed
MLPFANYYISSPSVSEKNAINNNVNKRRKKKRAMMVYGGGGGGDDLAVVKAAAWAWYLRKEGKPIMREFDVTRAQRIPRPSRYKIEATKNMILSENRVLAENRVSSTKSPLWYTNYQFRGDQETYYSRLLDTYETKNISKRLNIDDSSFSTSLSSVLKHNGDDHHNHNRNDDYGFDDHGLLKKRNGSDSNTTTRSKTNNDKSYNGGFMKKVSKRSLWKGMIVMGPGSTVCGRSDDVASQAGRRTVKVAVAAEALVRSAASGSGKTQSGHC	failed
